According to patent US20190212340A1, “AN ELISA-LIKE ASSAY FOR QUANTIFYING ENZYMATIC ACTIVITIES OF MONO-ADP-RIBOSYLTRANSFERASES” (University of Southern California, priority 2016, published 2019):

Assays:
[1] = substrate: NC(=O)c1ccc[n+]([C@@H]2O[C@H](COP(=O)([O-])OP(=O)(O)OC[C@H]3O[C@@H](n4cnc5c(N)ncnc54)C(O)[C@H]3O)[C@H](O)C2O)c1; assay: Km determination of PARP15 automodification by M2-based ELISA (Experiment No. 1); type: biochemical, human; conditions: other: 500 nM PARP15, NAD+ 5 μM to 4 mM; pH 7.4
Procedure: 96-well ELISA plates were coated with reactions in triplicates consisting of 500 nM PARP15 with various concentrations of NAD^+ (5, 10, 20, 30, 40, 200, 400, 1000, 2000 and 4000 μM) in Reaction Buffer (50 mM Tris-HCl, pH 7.4, 2 mM dTT). The reactions were quenched with 20% ice-cold TCA at various time points (0 to 20 minutes). The plates were further incubated for up to 2 hour under room temperature followed by five washes of PBST.
PARP15 automodification assay was performed by adding 50 μg/ml PARP15 to Reaction Buffer with 500 μM NAD^+ in a microcentrifuge tube for 2 hours. Automodified PARP15 was diluted and plated simultaneously on both the ELISA plate and clear pureGrade plate according to manufacturer's protocol. Upon addition of Coomassie Plus (Bradford) Assay Reagent the absorbance of each well was measured on a Synergy H1 Hybrid Multi-Mode Microplate Reader (BioTek, VT). The concentrations of automodified PARP15 in each well were determined through linear regression curve using BSA standards. A standard curve was constructed through a linear correlation of automodified PARP15 concentrations and the corresponding fluorescence signals.

[2] = substrate: NC(=O)c1ccc[n+]([C@@H]2O[C@H](COP(=O)([O-])OP(=O)(O)OC[C@H]3O[C@@H](n4cnc5c(N)ncnc54)C(O)[C@H]3O)[C@H](O)C2O)c1; assay: Enzyme kinetics of PARP15-catalyzed automodification by MLISA (Experiment No. 2); type: biochemical, human; conditions: other: 500 nM PARP15, NAD+ 5-400 μM, Michaelis-Menten fit; pH 7.4
Procedure: To characterize enzyme kinetics, 96-well plates were coated with reactions in triplicates that consist of 500 nM of PARP15 and NAD^+ at varied concentrations (5, 10, 20, 30, 40, 200, and 400 μM) in reaction buffer (50 mM Tris-HCl, pH 7.4, 2 mM DTT). The reactions were quenched with 20% ice-cold TCA at different time points (0, 2.5, 5, 7.5, 10, 12.5, 15, and 20 minutes). The plates were further incubated for up to 2 hours under room temperature followed by five washes with 200 μL of PBST. Kinetic parameters were calculated by fitting data to Michaelis-Menten model implemented in GraphPad Prism.
To determine reaction rates, standard curves were generated for each reaction plate. […] Upon additions of Coomassie Plus (Bradford) assay reagents to clear 96-well pureGrade plates, the absorbance at 595 nm of each well was measured by Synergy H1 Hybrid Multi-Mode Microplate Reader. The concentrations of automodified PARP15 were calculated through fitting to linear regression curves generated with BSA standards. Standard curves were constructed through linear correlation of the determined concentrations of automodified PARP15 with the fluorescence intensities of the corresponding wells measured on 96-well ELISA plates.

B1: PARP15 (Homo sapiens) (protein)
chain: MGHHHHHHIEGRNLPEHWTDMNHQLFCMVQLEPGQSEYNTIKDKFTRTCSSYAIEKIERIQNAFLWQSYQVKKRQMDIKNDHKNNERLLFHGTDADSVPYVNQHGFNRSCAGKNAVSYGKGTYFAVDASYSAKDTYSKPDSNGRKHMYVVRVLTGVFTKGRAGLVTPPPKNPHNPTDLFDSVTNNTRSPKLFVVFFDNQAYPEYLITFTA
notes: The catalytic domains of PARP15 (residue 481-678); His6 (N); Factor Xa cleavage site (IEGR) (N); made in house; host or cells: E. coli BL21 (DE3)
For B1, the Km [1] was 7.148 ± 3.138 µM, the Km [2] was 4.5 ± 2.9 µM and the kcat [2] was 0.000183 ± 1.7e-05 s⁻¹.
